Measured values: the RNAGym collection of RNA variant scans (doi:10.1101/gr.219683.116)

B1: mRNA-splicing (parent)
chain: AGUUGCUGCUGGGAGCUCCAGCACAGUGAAAUGGACAGAAGGGCAGAGCAA

Variants of: B1
Assay: exon inclusion enrichment index; higher = more inclusion; WT1 exon 5 minigene, HEK293

Compared with AGUUAUAUAUGGGAGCUCCACAACAGUGAAAUGGACAGAAGGGCAGAGCAA [G5A C6U U7A G8U C9A G21C C22A], AGUUACCACCCGGAGCUCCAGCACAGUGAAAUGGACAGAAGGGCAGAGCAA [G5A U7C G8A U10C G11C] is higher in “exon inclusion enrichment index” value: 0.109 for the first, 1.96 for the second.

Compared with AGUUCACACAGGGAGCUCCAGUACAGUGAAAUGGACAGAAGGGCAGAGCAA [G5C C6A U7C G8A U10A C22U], AGUUCUUCUCGGGAGCUCCAGCACAGUGAAAUGGAGCGAAGGGCAGAGCAA [G5C C6U G8C C9U U10C C36G A37C] is higher in “exon inclusion enrichment index” value: 0.0831 for the first, 0.671 for the second.

Going from AGUUUCUUUUGGGAGCUCCAACACAGUGAAAUGGACAGAAGGGCAGAGCAA [G5U G8U C9U G21A] to AGUUGCUGCUGGGAGCUCUUGCACAGUGAAAUGGACAGAAGGGCAGAGCAA [C19U A20U], the “exon inclusion enrichment index” value rises from 0.0718 to 1.01.

First: AGUUGAAGAAGGGAGCUCCAGCACAGUGAAAUGGACAGAAGGCGAGAGCAA [C6A U7A C9A U10A G43C C44G]
Second: AGUUUCUUUUGGGAGCUCAUGCACAGUGAAAUGGACAGAAGGGCAGAGCAA [G5U G8U C9U C19A A20U]
The “exon inclusion enrichment index” value of the first is higher: 3.16 for the first, 0.0164 for the second.

First: AGUUUCUUUUGGGAGCUCCAGCACAGUGAAAUGGACAGCCGGGCAGAGCAA [G5U G8U C9U A39C A40C]
Second: AGUUCAUCCAGGGAGCUCCAGCACAGUGAAAUGGACAGAAGGGCAGAGCAA [G5C C6A G8C U10A]
The “exon inclusion enrichment index” value of the first is lower: 0.321 for the first, 0.77 for the second.

First: AGUUCUUCUCGGGAGCUGUAGCACAGUGAAAUGGACAGAAGGGCAGAGCAA [G5C C6U G8C C9U U10C C18G C19U]
Second: AGUUGACGACGGGAGAUCCAGCACAGUGAAAUGGACAGAAGGGCAGAGCAA [C6A U7C C9A U10C C16A]
The “exon inclusion enrichment index” value of the first is lower: 0.674 for the first, 3.82 for the second.

Compared with AGUUCUUCUCGGGAGCUCCAGCACAGUGAAAUAAACAGAAGGGCAGAGCAA [G5C C6U G8C C9U U10C G33A G34A], AGUUACCACCGGGAGCUACAGCACAGUGAAAUGGACAGAAGGGCAGAGCAA [G5A U7C G8A U10C C18A] is higher in “exon inclusion enrichment index” value: 0.246 for the first, 1.35 for the second.

First: AGUUACCACCGGGAGCUGCAGCACAGUGAAAUGGACAGAAGGGCAGAGCAA [G5A U7C G8A U10C C18G]
Second: AGUUAUAUAUGGUCGCUCCAGCACAGUGAAAUGGACAGAAGGGCAGAGCAA [G5A C6U U7A G8U C9A G13U A14C]
The “exon inclusion enrichment index” value of the first is higher: 2.35 for the first, 0.0467 for the second.

Compared with AGUUAUAUAUGGGAGCUCCAGCACAGUGAAAUGGACAGAAGAACAGAGCAA [G5A C6U U7A G8U C9A G42A G43A], AGUUAUAUAUGGGAGCUCCAGCACAGUGAAAUUGACAGAAGGGCAGAGCAA [G5A C6U U7A G8U C9A G33U] is lower in “exon inclusion enrichment index” value: 1.16 for the first, 0.00963 for the second.

Going from AGUUUCUUUUGGGAGCUCCAGCACAGUGAAAUGGACAGAUAGGCAGAGCAA [G5U G8U C9U A40U G41A] to AGUUCUUCUCGGGAGCUCCAGCACAGUGAAAUGGACAGAAGCUCAGAGCAA [G5C C6U G8C C9U U10C G42C G43U], the “exon inclusion enrichment index” value rises from 0.00332 to 2.87.

First: AGUUCUUCUCGGGAGCUCCAGCACAGUGAAAUGGACAGAAGCCCAGAGCAA [G5C C6U G8C C9U U10C G42C G43C]
Second: AGUUAGGGAUGGGAGCGGCAGCACAGUGAAAUGGACAGAAGGGCAGAGCAA [G5A C6G U7G C9A U17G C18G]
The “exon inclusion enrichment index” value of the first is higher: 2.72 for the first, 0.00151 for the second.

Going from AGUUGAAGAAGGGAGCUCCAGCACAGUGAAAUGGACAGGCGGGCAGAGCAA [C6A U7A C9A U10A A39G A40C] to AGUUCCUCUCGGGAGCUCCAGCACAGUGAAAUGGACAGAAGGGCAGAGCAA [G5C G8C C9U U10C], the “exon inclusion enrichment index” value falls from 1.22 to 0.273.

Going from AGUUGAAUAAGGGAGCUCCAGCACAGUGAAAUGGACAGAAGGGCAGAGCAA [C6A U7A G8U C9A U10A] to AGUUGACGACGGGAGCUCCAGCACAGUGAAAUGGACAGAAGGGCAGGGCAA [C6A U7C C9A U10C A47G], the “exon inclusion enrichment index” value rises from 0.117 to 0.844.

Compared with AGUUACCACAAGGAGCUCCAGCACAGUGAAAUGGACAGAAGGGCAGAGCAA [G5A U7C G8A U10A G11A], AGUUACCACCGGGAGCUCCAGCAGAGUGAAAUGGACAGAAGGGCAGAGCAA [G5A U7C G8A U10C C24G] is higher in “exon inclusion enrichment index” value: 1.07 for the first, 2.53 for the second.

First: AGUUCUUCUCGGGAGCUCCAGCACAGUGAAAUGGACAGAAGUGCAGAGCAA [G5C C6U G8C C9U U10C G42U]
Second: AGUUCACACAGGGAGCGGCAGCACAGUGAAAUGGACAGAAGGGCAGAGCAA [G5C C6A U7C G8A U10A U17G C18G]
The “exon inclusion enrichment index” value of the first is higher: 2.42 for the first, 0.159 for the second.

Compared with AGUUACCACCGGGAGCUCCAGCACAGUGAAAUGCUCAGAAGGGCAGAGCAA [G5A U7C G8A U10C G34C A35U], AGUUCCGGCCGGGAGCUCCAGCACAGUGAAAUGGACAGAAGGGCAGAGCAA [G5C U7G U10C] is higher in “exon inclusion enrichment index” value: 0.506 for the first, 1.34 for the second.

Going from AGUUGACGACGGGAGUACCAGCACAGUGAAAUGGACAGAAGGGCAGAGCAA [C6A U7C C9A U10C C16U U17A] to AGUUGCUGCUGGGAGCUCCAGCACACCGAAAUGGACAGAAGGGCAGAGCAA [G26C U27C], the “exon inclusion enrichment index” value falls from 2.9 to 0.584.

First: AGUUCACACAGGGAUAUCCAGCACAGUGAAAUGGACAGAAGGGCAGAGCAA [G5C C6A U7C G8A U10A G15U C16A]
Second: AGUUGAAGAAGGGAGCUCCAGCAAAGUGAAAUGGACAGAAGGGCAGAGCAA [C6A U7A C9A U10A C24A]
The “exon inclusion enrichment index” value of the first is lower: 0.0461 for the first, 0.545 for the second.

Going from AGUUCACACAGGGAGCUCCAGCACAGUGAAAUGGACACCAGGGCAGAGCAA [G5C C6A U7C G8A U10A G38C A39C] to AGUUGACGACGGGAGCUCCAGCACAGUGAAAUGGACAGAAGCACAGAGCAA [C6A U7C C9A U10C G42C G43A], the “exon inclusion enrichment index” value rises from 0.136 to 3.52.

Compared with AGUUCUUCUCGGGAGCUCCACCACAGUGAAAUGGACAGAAGGGCAGAGCAA [G5C C6U G8C C9U U10C G21C], AGUUCUUCUCGGGAGCUCCAGCACAACGAAAUGGACAGAAGGGCAGAGCAA [G5C C6U G8C C9U U10C G26A U27C] is higher in “exon inclusion enrichment index” value: 1.57 for the first, 3.55 for the second.

First: AGUUGAAGAAGGGAGCUCCAGCACAGUGAAAUGGACUAAAGGGCAGAGCAA [C6A U7A C9A U10A A37U G38A]
Second: AGUUGCUGCUGGGAGCUCCAGCACCAUGAAAUGGACAGAAGGGCAGAGCAA [A25C G26A]
The “exon inclusion enrichment index” value of the first is lower: 0.258 for the first, 0.448 for the second.

Going from AGUUACCACCGGGAGCUCCAGCACAGUGAAAUGGACAGAGGGGCAGAGCAA [G5A U7C G8A U10C A40G] to AGUUCGCGCUCGGAGCUCCAGCACAGUGAAAUGGACAGAAGGGCAGAGCAA [G5C C6G U7C G11C], the “exon inclusion enrichment index” value rises from 1.93 to 2.28.

First: AGUUCGCGCCGGGAGCUCCAGCACAGUGAAAUGGACAGAAGGGCCAAGCAA [G5C C6G U7C U10C A45C G46A]
Second: AGUUACCACCGGGAGCUCCAGCACAGUGAAACCGACAGAAGGGCAGAGCAA [G5A U7C G8A U10C U32C G33C]
The “exon inclusion enrichment index” value of the first is lower: 2.12 for the first, 3.24 for the second.

Compared with AGUUCACACAGGGAGCUCCAGCACAGUGAAAUGGAAUGAAGGGCAGAGCAA [G5C C6A U7C G8A U10A C36A A37U], AGUUGCUGCUGGGAGCUCCAGCACAGUGAAUAGGACAGAAGGGCAGAGCAA [A31U U32A] is lower in “exon inclusion enrichment index” value: 0.0382 for the first, 0.00762 for the second.

Compared with AGUUCUUCUCGGGAGCUCCAGCACCUUGAAAUGGACAGAAGGGCAGAGCAA [G5C C6U G8C C9U U10C A25C G26U], AGUUCACACAGGGAGCUCCAGCACAGUGACGUGGACAGAAGGGCAGAGCAA [G5C C6A U7C G8A U10A A30C A31G] is lower in “exon inclusion enrichment index” value: 2.7 for the first, 0.372 for the second.

With AGUUACCACCGGGAGCUCCAGCACAGUGAAAUGGACAGAAUGGCAGAGCAA [G5A U7C G8A U10C G41U] the “exon inclusion enrichment index” value was 2.09.
